This is an account of results in publication PMC7382286, “Extensive sequence and structural evolution of Arginase 2 inhibitory antibodies enabled by an unbiased approach to affinity maturation” (Proceedings of the National Academy of Sciences of the …, 2020).

The target in data set [1] is T1, recombinant human Arginase 2 (human, UniProt P78540).
T1 construct: Arginase 2 (ARG2), human, recombinant; also called ARG2; trimeric ARG2; source: recombinant
The data set can be described thus: SEC; Fab and ARG2 in solution; ratio of Fab to ARG2 upon complex formation. The conditions noted are these: both partners purified. (In general: SEC sorts molecules by how far they enter the pores of the column.)

The target of data set [2] is T1, recombinant human Arginase 2. Briefly: crystal structure; ARG2-Fab C0020187 complex purified by SEC, crystallised; space group P 6(5) 2 2, 3.25 Å. The settings on record: both partners purified.
Data set [3] concerns the target T2, biotinylated recombinant human Arginase 2 (Homo sapiens, UniProt P78540, biotin (biotinylated; site not stated)).
T2 construct: Arginase 2 (ARG2), human, recombinant; Construct, tags and the way of biotinylation are in the SI Appendix; also called ARG2; biotinylated human ARG2; source: recombinant
The data set can be described thus: BLI; OctetRED96, 25 °C, PBS with 0.01% BSA and 0.002% Tween 20; biotinylated human ARG2 captured on streptavidin sensors, Fabs titrated as analyte; 1:1 binding model (heterogeneous ligand model for C0020187). The settings on record: both partners purified. On the technique in general: BLI is a label-free optical method that tracks binding on a fibre tip over time.

Data set [4] deals with T1, recombinant human Arginase 2. Briefly: cell-based or functional assay.
Data set [5] deals with the molecule itself. The data set can be described thus: crystal structure; ARG2-Fab C0020187 complex purified by SEC, crystallised; space group P 6(5) 2 2, 3.25 Å.

B1: Fab C0021177 (Fab, V domains shown)
VH: EVQLLESGGGLVQPGGSLRLSCAASGFTFRYEVAAWVRQAPGKGLEWVSAISGPAPKGYYADSVKGRFTISRDNSKNTLYLQMNSLRAEDTAVYYCARLRADLGLYMDLWGRGTLVTVSS
VL: QSELTQPPTASAAPGQKVTISCSGSSSNIGNHYVSWYQQLPGTAPKLLIYDTTVLSSGIPDRFSGSKSGTSATLGITGLQTGDEADYYCGTWDELTSNLVFGGGTKLTVL
notes: VH of C0021177; VL of C0021177; Pool-maturation lead
In the case of B1, the stoichiometry N (in general, a count of units in the complex or per binding partner) in data set [1] came to 3 Fab per ARG2 trimer.

B2: Fab C0020187 (Fab, V domains shown)
VH: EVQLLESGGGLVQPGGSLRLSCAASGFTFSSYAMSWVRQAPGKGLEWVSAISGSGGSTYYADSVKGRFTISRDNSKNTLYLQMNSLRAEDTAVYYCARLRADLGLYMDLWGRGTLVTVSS
VL: QSVLTQPPSVSAAPGQKVTISCSGSSSNIGNHYVSWYQQLPGTAPKLLIYDNSERPSGIPDRFSGSKSGTSATLGITGLQTGDEADYYCGTWDSSLSALVFGGGTKLTVL
notes: VH of C0020187; Fab heavy-chain constant region; VL of C0020187; Fab light-chain constant region; also called parental antibody; parent Fab C0020187
As for B2, the “stoichiometry N” value in data set [2] stood at 3 Fab per ARG2 trimer; in data set [1] it was 1 Fab per ARG2 trimer. The “KD of the initial high-affinity binding site (heterogeneous ligand model)” value in data set [3] was ~10 nM. Moreover, the “inhibition of the enzymatic activity of recombinant human ARG2 (1 µg/mL, ~24 nM; urea measured colorimetrically), IC50” value in data set [4] was 900 nM.

B3: Fab C0021133 (Fab, V domains shown)
VH: EVQLLESGGGLVQPGGSLRLSCAASGFTFRYDHHVWVRQAPGKGLEWVSAISGSGGSTYYADSVKGRFTISRDNSKNTLYLQMNSLRAEDTAVYYCARLRADLGLYMDLWGRGTLVTVSS
VL: QSVLTQPPSVSAAPGQKVTVSCSGSSSNIGNHYVSWYQQLPGTAPKLLIYDTTVLSSGIPDRFSGSKSGTSATLGITGLQTGDEADYYCGTWDELTSNLVFGGGTKLTVL
notes: VH of C0021133; Fab heavy-chain constant region; VL of C0021133; Fab light-chain constant region
In the case of B3, in data set [3], the binding result was “binds”.

B4: Fab C0021139 (Fab, V domains shown)
VH: EVQLLESGGGLVQPGGSLRLSCAASGFTFQYDYQVWVRQAPGKGLEWVSAISGSGGSTYYADSVKGRFTISRDNSKNTLYLQMNSLRAEDTAVYYCARLRADLGLYMDLWGRGTLVTVSS
VL: QSVLTQPPSVSAAPGQKVTISCSGSSSNIGNHYVSWYQQLPGTAPKLLIYDNSERTSGIPDRFSGSKSGTSATLGITGLQTGDEADYYCGTWDELTSNLVFGGGTKLTVL
notes: VH of C0021139; Fab heavy-chain constant region; VL of C0021139; Fab light-chain constant region
Take B4: in data set [3], the binding result is “binds”.

B5: Fab C0021158 (Fab, V domains shown)
VH: EVQLLESGGGLVQPGGSLRLSCAASGFTFRYEVAAWVRQAPGKGLEWVSAISGPIPKGYYADSVKGRFTISRDNSKNTLYLQMNSLRAEDTAVYYCARLRADLGLYMDLWGRGTLVTVSS
VL: QSVLTQPPSVSAAPGQKVTISCSGSSSNIGNHYVSWYQQLPGTAPKLLIYDNSERTAGVPDRFSGSKSGTSATLGITGLQTGDEADYYCGTWDELTSNLVFGGGTKLTVL
notes: VH of C0021158; VL of C0021158; Pool-maturation lead; 18 amino acid changes against C0020187
In the case of B5, in data set [1], the “stoichiometry N” value is 3 Fab per ARG2 trimer.

B6: Fab C0021181 (Fab, V domains shown)
VH: EVQLLESGGGLVRPGGSLRLSCAASEFTFRYDYHVWVRQAPGKGLEWVSAISGSGGSTYYADSVKSRFTISRDNSKNTLYLQMNSLRAEDTAVYYCARLRADLGLYMDLWGRGTLVTVSS
VL: QSVLTQPPSVSAAPGQKVAVSCSGSSSNIGSHYVSWYQQLPGTAPKLLIYDNSERTSGIPDRFSGSKSGTSATLGITGLQTGDEADYYCGTWDELTSNLVFGGGTRLTVL
notes: VH of C0021181; VL of C0021181; Pool-maturation lead; 18 amino acid changes against C0020187
For B6, the “stoichiometry N” value in data set [1] amounted to 3 Fab per ARG2 trimer.

B7: Fab C0021128 (Fab, V domains shown)
VH: EVQLLESGGGLVQPGGSLRLSCAASGFTFQYEVAAWVRQAPGKGLEWVSAISGPIPKGYYADSVKGRFTISRDNSKNTLYLQMNSLRAEDTAVYYCARLRADLGLYMDLWGRGTLVTVSS
VL: QSVLTQPPSVSAAPGQKVTISCSGSSSNIGNHYVSWYQQLPGTAPKLLIYDNAIESSGIPDRFSGSKSGTSATLGITGLQTGDGADYYCGTWDSNLSALVFGGGTKLTVL
notes: VH of C0021128; Fab heavy-chain constant region; VL of C0021128; Fab light-chain constant region
With B7, in data set [3], the binding result is “binds”.

B8: recombinant human Arginase 2 (enzyme)
chain: VHSVAVIGAPFSQGQKRKGVEHGPAAIREAGLMKRLSSLGCHLKDFGDLSFTPVPKDDLYNNLIVNPRSVGLANQELAEVVSRAVSDGYSCVTLGGDHSLAIGTISGHARHCPDLCVVWVDAHADINTPLTTSSGNLHGQPVSFLLRELQDKVPQLPGFSWIKPCISSASIVYIGLRDVDPPEHFILKNYDIQYFSMRDIDRLGIQKVMERTFDLLIGKRQRPIHLSFDIDAFDPTLAPATGTPVVGGLTYREGMYIAEEIHNTGLLSALDLVEVNPQLATSEEEAKTTANLAVDVIASSFGQTREGGHIVYDQLPTPSSPDESENQARVRI
notes: Arginase 2 (ARG2), human, recombinant; also called ARG2; trimeric ARG2; source: recombinant
On to B8, for which the “stoichiometry N” value in data set [5] was 3.
